For test [1], the target named is T1, PHD1KDM5B (306–360 aa) (Homo sapiens, UniProt Q9UGL1).
T1 construct: PHDKDM5B (residues 306–360 aa); GST (N, cleaved yes); made in house
T1 sequence (Q9UGL1 306-360): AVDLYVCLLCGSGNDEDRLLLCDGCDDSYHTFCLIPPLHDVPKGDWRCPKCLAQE
Put plainly: ITC binding of H3 peptides to PHD1KDM5B. The source says:
The details of the preparation, purification, crystallization and determination of the PHDKDM5B (residues 306–360 aa) X-ray structure were previously described (Guo et al., [2011]). The modified pGEX-6p-1 vectors expressed proteins with the N-terminal GST tag, which is removable by cleavage with a 3C protease, enabling the use of non-tagged proteins in our studies. Only the X-ray structure of free PHD1KDM5B was obtained.
To study the binding affinities in vitro or to construct different NMR samples of the complex, H3K4 peptides without modifications (with the ARTKQTARKS sequence or […] sequence) or with some modifications (H3R2me1, R2 monomethylation; H3R2me2s, R2 symmetric dimethylation; H3R2me2a, R2 asymmetric dimethylation; H3K4me1/2/3, K4 mono-, di-, and tri-methylation; H3K9me1/2/3, K9 mono-, di- and tri-methylation; H3 peptide A1G, R2A, T3V, K4A, Q5E, T6V mutants without any modification) were purchased from GL Biochem Ltd. (Shanghai, China), and their purity was confirmed by HPLC and mass spectrometry.
To investigate whether the PHD1KDM5B finger and its mutants interact with unmodified or methylated H3K4 or H3K4mutants, the binding affinities of PHD1KDM5B or its mutants to H3 peptides were studied. An ITC-200 microcalorimeter (GE Healthcare) was used with a buffer containing 20 mmol/L Tris, 150 mmol/L NaCl, and 1% Triton X-100, pH 7.5 at 25°C. The reference titration of small molecules in the buffer was subtracted from the experimental data, and the data were fitted using the Origin 7.0 (OriginLab Corporation) software.

Test [2] deals with PHD1 finger of KDM5B (residues 306-360) (UniProt Q9UGL1). Put plainly: ITC; ITC-200, 20 mmol/L Tris, 150 mmol/L NaCl, 1% Triton X-100, pH 7.5, 25°C.
Test [3] concerns the target H3K4 (1-10aa) K4A (Homo sapiens). In words: ITC. As to conditions: domain or fragment; chains chain.
Test [4] concerns the target H3K4 (1-10aa) Q5E (Homo sapiens). Put plainly: ITC. As to conditions: domain or fragment; chains chain.
In test [5] the target is T2, PHD1 finger of KDM5B (residues 306-360) (UniProt Q9UGL1 306-360).
T2 construct: 15N- or 13C/15N-labelled (M9 medium) for the NMR experiments; GST removed with 3C protease; also called PHD1_(KDM5B); PHD_(KDM5B); source: recombinant from modified pGEX-6p-1, purified; preparation described in Guo et al., 2011; not shown: GST, N-terminal, cleaved
T2 sequence (looked up): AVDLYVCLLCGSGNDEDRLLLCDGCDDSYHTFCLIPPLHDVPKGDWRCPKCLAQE
In words: ITC; ITC-200, 20 mmol/L Tris, 150 mmol/L NaCl, 1% Triton X-100, pH 7.5, 25°C. As to conditions: both partners purified. (ITC needs no label: the signal is the heat of the interaction.)

Where [6] appears, read: ITC-200, 20 mmol/L Tris, 150 mmol/L NaCl, 1% Triton X-100, pH 7.5, 25°C, H3 peptides residues 1–10, means (± s.d.) of at least three experiments.
Setting [7] is: Table S1, pH 7.5, 25°C, H3 peptides (1-10aa), N.D. means non-detectable.

The text below walks through data of PMC4225485, “The PHD1 finger of KDM5B recognizes unmodified H3K4 during the demethylation of histone H3K4me2/3 by KDM5B” (Protein & Cell, 2014).

As usually defined, the Kd is the concentration at which binding is half-saturated. Read a high Kd as weaker binding. In test [1] (setting [6]), `C[C@H](NC(=O)[C@@H](NC(=O)[C@H](CCC(N)=O)NC(=O)[C@H](CCCCN)NC(=O)[C@@H](NC(=O)[C@H](CCCNC(=N)N)NC(=O)CN)[C@@H](C)O)[C@@H](C)O)C(=O)N[C@@H](CCCNC(=N)N)C(=O)N[C@@H](CCCCN)C(=O)N[C@@H](CO)C(=O)O` [H3K4 (1-10aa) A1G] registered a Kd of 305 ± 11.7 µM.

`C[C@H](N)C(=O)N[C@@H](CCCNC(=N)N)C(=O)N[C@H](C(=O)N[C@@H](C)C(=O)N[C@@H](CCC(N)=O)C(=O)N[C@H](C(=O)N[C@@H](C)C(=O)N[C@@H](CCCNC(=N)N)C(=O)N[C@@H](CCCCN)C(=O)N[C@@H](CO)C(=O)O)[C@@H](C)O)[C@@H](C)O` [H3K4 (1-10aa) K4A] displayed a Kd in test [1] (setting [7]) of 15.9 ± 1.2 µM.

In the case of `C[C@H](N)C(=O)N[C@@H](CCCNC(=N)N)C(=O)N[C@H](C(=O)N[C@@H](CCCCN)C(=O)N[C@@H](CCC(=O)O)C(=O)N[C@H](C(=O)N[C@@H](C)C(=O)N[C@@H](CCCNC(=N)N)C(=O)N[C@@H](CCCCN)C(=O)N[C@@H](CO)C(=O)O)[C@@H](C)O)[C@@H](C)O` [H3K4 (1-10aa) Q5E], the Kd in test [1] (setting [7]) was determined as 21.4 ± 1.7 µM.

For the molecule `C[C@H](N)C(=O)N[C@@H](C)C(=O)N[C@H](C(=O)N[C@@H](CCCCN)C(=O)N[C@@H](CCC(N)=O)C(=O)N[C@H](C(=O)N[C@@H](C)C(=O)N[C@@H](CCCNC(=N)N)C(=O)N[C@@H](CCCCN)C(=O)N[C@@H](CO)C(=O)O)[C@@H](C)O)[C@@H](C)O` [H3K4 (1-10aa) R2A], the Kd in test [1] (setting [6]) is 370 ± 52.1 µM.

Molecule `CC(C)[C@H](NC(=O)[C@H](CCCNC(=N)N)NC(=O)[C@H](C)N)C(=O)N[C@@H](CCCCN)C(=O)N[C@@H](CCC(N)=O)C(=O)N[C@H](C(=O)N[C@@H](C)C(=O)N[C@@H](CCCNC(=N)N)C(=O)N[C@@H](CCCCN)C(=O)N[C@@H](CO)C(=O)O)[C@@H](C)O` [H3K4 (1-10aa) T3V] gave a Kd in test [1] (setting [6]) of 57.1 ± 2.2 µM.

With `CC(C)[C@H](NC(=O)[C@H](CCC(N)=O)NC(=O)[C@H](CCCCN)NC(=O)[C@@H](NC(=O)[C@H](CCCNC(=N)N)NC(=O)[C@H](C)N)[C@@H](C)O)C(=O)N[C@@H](C)C(=O)N[C@@H](CCCNC(=N)N)C(=O)N[C@@H](CCCCN)C(=O)N[C@@H](CO)C(=O)O` [H3K4 (1-10aa) T6V], binding in test [1] (setting [6]) was characterised by a dissociation constant (Kd) of 61.3 ± 1.6 µM. This Kd and that of the molecule before are within 1.5-fold of each other.

“H3 peptide A1G mutant (from UniProt P68431 2-11)” gave a Kd in test [2] of 305 µM.

For the molecule “H3 peptide R2A mutant (from UniProt P68431 2-11)”, the Kd in test [2] turned out to be 370 µM.

In test [2], “H3 peptide T3V mutant (from UniProt P68431 2-11)” showed a Kd of 57.1 µM.

As to “H3 peptide T6V mutant (from UniProt P68431 2-11)”, the Kd in test [2] was 61.3 µM.

As for “H3K4 (1-10aa) K4E: unmodified H3 peptide (1-10aa) K4E mutant (ARTEQTARKS; UniProt P68431 2-11, looked up, variant K4E)”, the KD result in test [1] (setting [6]) was “non-detectable”.

On to “H3K4 (1-10aa) R2E: unmodified H3 peptide (1-10aa) R2E mutant (AETKQTARKS; UniProt P68431 2-11, looked up, variant R2E)”, for which the KD entry in test [1] (setting [6]) is given as “too small to detect”.

B1: PHD1 finger of KDM5B (residues 306-360), Q9UGL1 306-360 (protein)
chain: AVDLYVCLLCGSGNDEDRLLLCDGCDDSYHTFCLIPPLHDVPKGDWRCPKCLAQE
For B1, the Kd in test [3] is 15.9 µM; in test [4], 21.4 µM.

B2: tri-methylated H3K4me3 peptide (residues 1-10) (peptide)
peptide: ARTKQTARKS
modifications: trimethyl-lysine at K4
notes: histone H3 N-terminal tail, residues 1-10; source: synthetic peptide, bought: GL Biochem Ltd. (Shanghai, China)
With B2, the Kd in test [5] is 104 µM.
